# Assay results published in patent US20220153822A1 (ALYTAS THERAPEUTICS, published 2022).
# Numbering of substitutions follows the chain as printed.
# T1: Perilipin epitope 6 peptide EVRVPWLHSLAAAQE (SEQ ID NO. 333) (human, Biotin-PEG Spacer and GGSGGS Linker (SEQ ID NO. 438) at the N-terminus, or Biotin-PEG Spacer and AAAAA Linker (SEQ ID NO. 439) at the C-terminus)
# T1 construct: Two biotinylated variants were used for selection and ELISA; On the peptide array it stood without biotin; also called target peptide
# T1 peptide: EVRVPWLHSLAAAQE
# T2: Perilipin epitope 5 peptide AKPSLLSRVGALTNT (SEQ ID NO. 332) (human, Biotin-PEG Spacer and GGSGGS Linker (SEQ ID NO. 438) at the N-terminus, or Biotin-PEG Spacer and AAAAA Linker (SEQ ID NO. 439) at the C-terminus)
# T2 construct: Two biotinylated variants were used for selection and ELISA; On the peptide array it stood without biotin; also called target peptide
# T2 peptide: AKPSLLSRVGALTNT
# B1: Antibody No. 41 (antibody, V domains shown)
# VH: QVQLVQSGGGVVQPGRSQRLSCAASGFTFSNAWMSWVRQAPGKGLEWVSAISGSGGSTYYADSVKGRFTISRDNSKNTLYLQMNSLRAEDTAVYYCAANEGGDAFDIWGQGTMVTVSS
# VL: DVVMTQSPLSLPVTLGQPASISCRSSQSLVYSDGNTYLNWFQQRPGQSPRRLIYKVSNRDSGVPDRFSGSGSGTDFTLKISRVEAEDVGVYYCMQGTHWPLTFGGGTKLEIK
# notes: human IgG1, lambda or kappa light chain; also called 447-E10
# B2: Antibody No. 43 (antibody, V domains shown)
# V domain 1: QVQLVQSGAEVKKPGSSVKVSCKASGGTFSSYAISWVRQAPGQGLEWMGGIIPIFGTANYAQKSQGRVTITADESTSTAYMELSSLRSEDTAVYYCARESGSGNRIPYGMDVWGQGTMVTVSS
# V domain 2: QSVLTQPPSVSGAPGQRVTISCTGSSSNIGAGYDVHWYQQLPGTAPKLLIYGNSNRPSGVPDRFSGSKSGTSASLAITGLQAEDEADYYCQSYDSSLSGPVVFGGGTQVTVL
# notes: human IgG1, lambda or kappa light chain; also called 447-A07
# B3: Antibody No. 39 (antibody, V domains shown)
# VH: QVQLVESGGGLVQPGRSLRLSCAASGFTFDDYAMHWVRQAPGKGLEWVSGISWNSGSIGYADSVKGRFTISRDNAKNSLYLQMNSLRAEDTALYYCAKDTTWGGSYPYFDYWGQGTLVTVSS
# VL: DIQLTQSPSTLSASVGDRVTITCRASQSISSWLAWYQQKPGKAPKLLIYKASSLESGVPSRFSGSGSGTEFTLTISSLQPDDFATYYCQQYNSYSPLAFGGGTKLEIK
# notes: human IgG1, lambda or kappa light chain; also called 448-H05
# B4: Antibody No. 30 (antibody, V domains shown)
# VH: EVQLVQSGGGLVQPGGSLRLSCAASGFTFSSYAMSWVRQAPGKGLEWVSAISGSGGSTYYADSVKGRFTISRDNAKNSLYLQMNSLRAEDTAVYYCARVRVSDGRFDYWGQGTLVTVSS
# VL: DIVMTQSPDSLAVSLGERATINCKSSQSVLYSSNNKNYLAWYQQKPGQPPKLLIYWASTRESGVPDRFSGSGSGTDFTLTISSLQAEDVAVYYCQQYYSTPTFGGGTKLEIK
# notes: human IgG1, lambda or kappa light chain; also called 448-E04
# B5: Antibody No. 40 (antibody, V domains shown)
# VH: EVQLLESGGGLVKPGGSLRLSCAASGFTFSDYYMSWIRQAPGKGLEWVSYISSSSSYTNYADSVKGRFTISRDNAKNSLYLQMNSLRAEDTAVYYCARLSTVTRAFDIWGQGTMVTVSS
# VL: DIQLTQSPSSVSASVGDRVTITCRASQGISSWLAWYQQKPGKAPKLLIYAASSLQSGVPSRFSGSGSGTDFTLTISSLQPEDFATYYCQQANSFPPTFGQGTKLEIK
# notes: human IgG1, lambda or kappa light chain; also called 447-F11
# B6: Antibody No. 57 (antibody, V domains shown)
# VH: QVQLVESGAEVKKPGASVKVSCKASGYTFTSYYMHWVRQAPGQGLEWMGIINPSGGSTSYAQKFQGRVTMTRDTSTSTVYMELSSLRSEDTAVYYCARMTTSLGFDYWGQGTLVTVSS
# VL: B5 VL with R18K, S31N, Q38L, I48V, S77N, F94L, P96L, Q100G, K103R
# notes: human IgG1, lambda or kappa light chain; also called 447-H10
# B7: Antibody No. 52 (antibody, V domains shown)
# VH: QVQLVQSGAEVKKPGASVKVSCKASGYTFTSYGISWVRQAPGQGLEWMGWISAYNGNTNYAQKLQGRVTMTTDTSTSTAYMELRSLRSDDTAVYYCASWGVVGGMDVWGQGTLVTVSS
# VL: B5 VL with L4M, P96L, Q100G, L104V, E105D
# notes: human IgG1, lambda or kappa light chain; also called 448-F05
# B8: Antibody No. 49 (antibody, V domains shown)
# VH: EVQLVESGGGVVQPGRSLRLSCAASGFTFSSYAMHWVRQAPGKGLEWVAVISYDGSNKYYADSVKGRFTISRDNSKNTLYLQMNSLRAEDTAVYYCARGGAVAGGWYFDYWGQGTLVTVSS
# VL: B5 VL with Q3V, L4M
# notes: human IgG1, lambda or kappa light chain; also called 448-H04
# B9: Antibody No. 55 (antibody, V domains shown)
# VH: QVQLVQSGAEVKKPGASVKVSCKASGYTFTSYYMHWVRQAPGQGLEWMGIINPSGGSTSYAQKFQGRVTMTRDTSTSTVYMELSSLRSEDTAVYYCARDDYGDYWGQGTLVTVSS
# VL: QSALTQPASVSGSPGQSITIPCTGTSSDVGGYNYVSWYQQHPGKAPKLMIYEVSNRPSGVSNRFSGSKSGNTASLTISGLQAEDEADYYCSSYTSSSFSFGTGTKLTVL
# notes: human IgG1, lambda or kappa light chain; also called 447-C08
# B10: Antibody No. 42 (antibody, V domains shown)
# VH: QVQLVESGGGVVQPGRSLRLSCAASGFTFSNYAMHWVRQAPGKGLEWVAVISYDGSKKYYADSVKGRFTISRDNSKNTLYLQMNSLGAEDMAVYYCAREDPRRGGIDYWGQGTLVTVSS
# VL: QSVLTQPPPVSGAPGQRVTISCTGSSSNIGAGYDVHWYQQLPGTAPKLLIYGNSNRPSGVPDRFSGSKSGTSASLAITGLQAEDEADYYCQSYDSSLSGYVFGTGTKVTVL
# notes: human IgG1, lambda or kappa light chain; also called 447-B06
# B11: Antibody No. 48 (antibody, V domains shown)
# VH: EVQLVQSGGGVVQPGRSLRLSCAASGFTFSSYAMHWVRQAPGKGLEWVAVISYDGSNKYYADSVKGRFTISRDNSKNTLYLQMNSLRAEDTAVYYCAAESAYSSSWSGLRFDPWGQGTLVTVSS
# VL: B10 VL with P9S, V108L
# notes: human IgG1, lambda or kappa light chain; also called 447-B08
# B12: Antibody No. 24 (antibody, V domains shown)
# VH: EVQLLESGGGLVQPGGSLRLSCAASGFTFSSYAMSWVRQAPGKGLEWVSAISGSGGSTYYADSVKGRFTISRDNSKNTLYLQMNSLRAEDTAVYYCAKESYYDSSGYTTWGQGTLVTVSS
# VL: B10 VL with P9S, V108L
# notes: human IgG1, lambda or kappa light chain; also called 447-C09
# B13: Antibody No. 45 (antibody, V domains shown)
# VH: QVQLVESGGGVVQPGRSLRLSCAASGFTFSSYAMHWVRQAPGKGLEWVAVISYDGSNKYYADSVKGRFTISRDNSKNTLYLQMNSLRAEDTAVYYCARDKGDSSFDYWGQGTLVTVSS
# VL: B10 VL with P9S, Y100V, T104G
# notes: human IgG1, lambda or kappa light chain; also called 447-E08
# B14: Antibody No. 26 (antibody, V domains shown)
# VH: EVQLLESGGGVVQPGRSLRLSCAASGFTFSSYAMHWVRQAPGKGLEWVAVISYDGSNKYYADSVKGRFTISRDNSKNTLYLQMNSLRAEDTAVYYCARELYYGPGGMDVWGQGTLVTVSS
# VL: B10 VL with P9S, Y100S, T104G, V108L
# notes: human IgG1, lambda or kappa light chain; also called 447-D06
# B15: Antibody No. 47 (antibody, V domains shown)
# VH: QVQLVQSGGGVVQPGRSLRLSCAASGFTFSSYAMHWVRQAPGKGLEWVAVISYDGSNKYYADSVKGRFTISRDNSKNTLYLQMNSLRAEDTAVYYCAREAGEGVDYWGQGTLVTVSS
# VL: B10 VL with P9S, V108L
# notes: human IgG1, lambda or kappa light chain; also called 447-A08
# B16: Antibody No. 23 (antibody, V domains shown)
# VH: QVQLVQSGGGLVQPGRSLRLSCAASGFTFDDYAMHWVRQAPGKGLEWVSGISWNSGSIGYADSVKGRFTISRDNAKNSLYLQMNSLRAEDTALYYCAKDIAGGDYPVFDYWGQGTLVTVSS
# VL: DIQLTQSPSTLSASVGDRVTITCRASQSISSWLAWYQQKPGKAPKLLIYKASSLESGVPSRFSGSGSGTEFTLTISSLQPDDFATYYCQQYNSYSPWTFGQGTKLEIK
# notes: human IgG1, lambda or kappa light chain; also called 435-B08
# B17: Antibody No. 35 (antibody, V domains shown)
# VH: QVQLVQSGAEVKKPGTTVKISCKVSGYSFTDYYMHWVQQAPGKGLEWMGLVDPEDGETLYAEKFQGRVTITVDTSTDTAYMELSSLRSEDTAVYYCAAEPQMVQGPSPPDYWGQGTLVTVSS
# VL: QSALTQPASVSGSPGQSITISCTGTSSDVGGYSYVSWYQQHPGKAPKLMIYDVSNRPSGVSNRFSGSKSGNTASLTISGLQAEDEADYYCSSYTSSSTLLFGGGTKLTVL
# notes: human IgG1, lambda or kappa light chain; also called 447-E03
# B18: Antibody No. 51 (antibody, V domains shown)
# VH: QVQLQESGGGVVQPGRSLRLSCAASGFTFSSYAMHWVRQAPGKGLEWVAVISYDGSNKYYAGSVKGRFTISRDNSKNTLYLQMNSLRAEDTAVYYCARDWRGVYFDYWGQGTLVTVSS
# VL: B17 VL with S33N, D52E, L100V
# notes: human IgG1, lambda or kappa light chain; also called 447-E05
# B19: Antibody No. 28 (antibody, V domains shown)
# VH: B15 VH with E99D, A100S, E102V, G103V, V104M
# VL: B17 VL with S33N, L100V, L107V
# notes: human IgG1, lambda or kappa light chain; also called 447-F08
# B20: Antibody No. 13 (antibody, V domains shown)
# VH: QVQLVQSGGGLVQPGRSLRLSCAASGFTFDDYAMHWVRQAPGKGLEWVSGISWNSGSIGYADSVKGRFTISRDNAKNSLYLQMNSLRAEDTALYYCAKEDGSYALDYWGQGTLVTVSS
# VL: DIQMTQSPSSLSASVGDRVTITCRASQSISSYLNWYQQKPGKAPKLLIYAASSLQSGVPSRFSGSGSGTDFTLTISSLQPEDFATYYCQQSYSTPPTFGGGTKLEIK
# notes: human IgG1, lambda or kappa light chain; also called 432-G09
# B21: Antibody No. 34 (antibody, V domains shown)
# VH: B20 VH with Q6E, D100G, S102D, Y103S, A104D, L105F
# VL: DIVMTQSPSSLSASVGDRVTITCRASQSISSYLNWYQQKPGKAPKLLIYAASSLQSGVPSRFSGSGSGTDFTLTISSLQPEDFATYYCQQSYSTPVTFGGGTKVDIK
# notes: human IgG1, lambda or kappa light chain; also called 447-B01
# B22: Antibody No. 46 (antibody, V domains shown)
# VH: QVQLVQSGGGVVQPGRSLRLSCAASGFTFSSYAMHWVRQAPGKGLEWVAVISYDGSNKYYADSVKGRFTISRDNSKNTLYLQMNSLRAEDTAVYYCARDQYDILTGYGGTALDYWGQGTLVTVSS
# VL: QSALTQPPSASGSPGQSVTISCTGTSSDVGGYNYVSWYQQHPGEAPKLMIYEVSKRPSGVPDRFSGSKSGNTASLTVSGLQAEDEADYYCSSYAGSNNLVFGGGTKLTVL
# notes: human IgG1, lambda or kappa light chain; also called 447-B07
# B23: Antibody No. 31 (antibody, V domains shown)
# VH: EVQLLESGGGVVQPGRSLRLSCAASGFTFSSYAMHWVRQAPGKGLEWVAVISYDGSNKYYADSVKGRFTISRDNSKNTVSLQMSSLRADDTAIYYCVKDTILIDWGQGTLVTVSS
# VL: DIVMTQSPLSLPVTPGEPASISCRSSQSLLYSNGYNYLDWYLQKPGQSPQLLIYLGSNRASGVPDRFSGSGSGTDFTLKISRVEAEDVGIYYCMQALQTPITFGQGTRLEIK
# notes: human IgG1, lambda or kappa light chain; also called 448-E06
# B24: Antibody No. 53 (antibody, V domains shown)
# VH: B15 VH with A33G, R98K, E99D, A100F, G101S, E102D, G103A, V104F, Y106I, L112M
# VL: QSVLTQPPSVSAAPGQKVTISCSGSSSNIGNNYVSWYQQLPGTAPKLLIYDNNKRPSGIPDRFSGSKSGTSATLGITGLQTGDEADYYCGTWDSSLSAVVFGGGTKVTVL
# notes: human IgG1, lambda or kappa light chain; also called 447-G07
# B25: Antibody No. 54 (antibody, V domains shown)
# VH: B15 VH with Q1E, V5L, Q6E, A33G, R98K, E99G, A100S, E102W, G103Y, V104F
# VL: not shown
# notes: human IgG1, lambda or kappa light chain; also called 447-C12
# Legend:
# [1] = molecular target: T1, Perilipin epitope 6 peptide …; assay: phage display selection and ELISA on biotinylated target peptide
# [2] = molecular target: T2, Perilipin epitope 5 peptide …; assay: as above
Binder,binding result [1],binding result [2]
B1,binds,–
B2,binds,–
B3,binds,–
B4,binds,–
B5,binds,–
B6,binds,–
B7,binds,–
B8,binds,–
B9,binds,–
B10,binds,–
B11,binds,–
B12,binds,–
B13,binds,–
B14,binds,–
B15,binds,–
B16,binds,–
B17,–,binds
B18,binds,–
B19,binds,–
B20,–,binds
B21,–,binds
B22,binds,–
B23,binds,–
B24,binds,–
B25,binds,–
